This is an account of results in patent publication US5939284A, “Protein phosphatase 1 binding protein, R5” (Smithkline Beecham Corporation, priority 1996, dated 1999).

For experiment [1], the target named is Human PP1g (catalytic subunit of protein phosphatase 1), bacterially expressed (human) (UniProt P36873).
The target of experiment [2] is PP1g (catalytic subunit of protein phosphatase 1). As to the kind of experiment: Protein phosphatase assay: phosphorylase phosphatase activity of PP1. It counts as biochemical, human. To be noted: freshly prepared preparation; 32P-labelled phosphorylase as substrate; preincubated 15 minutes at 30° C.; FIG. 3; read-out: IC50 for inhibition of the phosphorylase phosphatase activity of PP1.
Method: Protein phosphatase assays were performed in the absence of divalent cations as described in Cohen et al, (1988), cited above. The catalytic subunit PP1g, described above in Example 2, was diluted in assay buffer to 1.5 U/ml (1.4 nM). Rabbit skeletal muscle glycogen phosphorylase was ^32 P-labelled by phosphorylase kinase to a stoichiometry of 1 mol phosphate per mol subunit as in Cohen et al, Meth. Enzymol. 159:390-408 (1988) and was 10 mM in the assays.
Assays were initiated with 0.01 ml ^32 P-labelled phosphorylase. One unit of activity is the amount of enzyme which catalyses the release of 1 mmol of [^32 P]phosphate per minute.

The next experiment has as its system phosphorylase a. As to the kind of experiment: Blot overlay with 32P labelled phosphorylase a. The settings on record: proteins electrophoresed, transferred to nitrocellulose, probed with 32P labelled phosphorylase a; blot not shown. It counts as binding.

Method for phosphorylase a: An immunoblot was prepared, comparing the binding of phosphorylase a to GST-GL and GST-R5. GST-R5 and GST-GL were electrophoresed on a 10% polyacrylamide gel, transferred to nitrocellulose membranes and either (A) probed with 0.01 ml ^32 P labelled phosphorylase a as described in Doherty et al, (1995), cited above and Moorhead et al., (1995), cited above or (B) stained with Coomassie blue. One lane ran the affinity-purified GST-GL ; a second lane ran affinity purified GST- R5; a third lane ran GST-R5 after gel filtration on Superdex 200 for each condition (A) and (B).

Take GST-PPP1R5 fusion protein: in experiment [1], the IC50, inhibition of phosphorylase phosphatase activity of PP1 was determined as 100 nM.

GST-GL fusion protein gave an IC50, inhibition of phosphorylase phosphatase activity of PP1 in experiment [1] of 100 nM.

B1: GST-GL: GST fusion protein of the rat liver glycogen binding subunit (GL) of protein phosphatase 1, bacterially expressed (protein)
chain: MAVDIEYSYSSMAPSLRRERFTFKISPKLNKPLRPCIQLGSKDEAGRMVAPTVQEKKVKKRVSFADNQGLALTMVKVFSEFDDPLDIPFNITELLDNIVSLTTAESESFVLDFPQPSADYLDFRNRLQTNHVCLENCVLKEKAIAGTVKVQNLAFEKVVKIRMTFDTWKSFTDFPCQYVKDTYAGSDRDTFSFDISLPEKIQSYERMEFAVCYECNGQSYWDSNKGKNYRITRAELRSTQGMTEPYNGPDFGISFDQFGSPRCSFGLFPEWPSYLGYEKLGPYY
In the case of B1, in experiment [2], the IC50 (as a rule, the point on the concentration scale where inhibition reaches its midpoint) was roughly 100 nM. Further, the “Binding of phosphorylase a” value with phosphorylase a is given as “bound”.
